Results as given in patent US20250019432A1.

Biological target: CD33 on U937 cells (UniProt P20138)
Test: cell-based or functional assay

CD33 on U937 cells, sequence (P20138 18-364 limits assumed): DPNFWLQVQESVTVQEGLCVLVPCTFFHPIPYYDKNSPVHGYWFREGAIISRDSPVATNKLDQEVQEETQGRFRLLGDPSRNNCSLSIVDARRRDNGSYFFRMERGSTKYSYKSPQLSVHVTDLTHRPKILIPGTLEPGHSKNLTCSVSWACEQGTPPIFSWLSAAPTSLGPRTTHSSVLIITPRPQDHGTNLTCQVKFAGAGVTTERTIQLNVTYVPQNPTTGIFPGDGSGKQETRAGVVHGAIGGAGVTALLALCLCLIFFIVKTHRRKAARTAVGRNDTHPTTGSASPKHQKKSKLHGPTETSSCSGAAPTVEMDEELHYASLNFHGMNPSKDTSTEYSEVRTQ

anti-CD33 antibody P67.6
CD33 % surface expression, 0 min: 100%
CD33 % surface expression, 15 min: 79%
CD33 % surface expression, 30 min: 72%
CD33 % surface expression, 45 min: 68%
CD33 % surface expression, 90 min: 53%
CD33 % surface expression, 120 min: 48%
MFI of pH sensitive dye, CD33 complexes, 0 hours: 20.8
MFI of pH sensitive dye, CD33 complexes, 4 hours: 26
MFI of pH sensitive dye, CD33 complexes, 24 hours: 31.9
